Target: the molecule itself
Test: SEC

B1: MBP-5-HT3A-ICD chimera (maltose-binding protein and the intracellular domain of the mouse serotonin type 3A receptor) (domain or fragment, UniProt P23979 327-466, looked up)
chain: ETIFIVRLVHKQDLQRPVPDWLRHLVLDRIAWILCLGEQPMAHRPPATFQANKTDDCSGSDLLPAMGNHCSHVGGPQDLEKTPRGRGSPLPPPREASLAVRGLLQELSSIRHFLEKRDEMREVARDWLRVGYVLDRLLFR
With B1 the “stoichiometry N” value was 5.
